Experiment in all cases: cryo-EM structure
The target of one data set is CD20 (UniProt P11836).
Data set [1] has as its target human β-tryptase, tetrameric (activated by enterokinase cleavage) (human) (UniProt Q15661).
The data set “cryo-EM structure” deals with the molecule itself.

Broadly, the stoichiometry N is a count of units in the complex or per binding partner.

Consider “Rituximab Fab, wild type (human-mouse chimeric)”, for which the stoichiometry N (Fab per CD20 dimer) with CD20 is 2.
Take “human β-tryptase, tetrameric (activated by enterokinase cleavage) (from UniProt Q15661 31-275) (enzyme)”: the stoichiometry N in data set [1] amounted to 4.

B1: CD20 (natural protein)
chain: TQSFFMRESKTLGAVQIMNGLFHIALGGLLMIPAGIYAPICVTVWYPLWGGIMYIISGSLLAATEKNSRKCLVKGKMIMNSLSLFAAISGMILSIMDILNIKISHFLKMESLNFIRAHTPYINIYNCEPANPSEKNSPSTQYCYSIQSLFLGILSVMLIFAFFQELVIAGIVENEWKRTCSRPKSNIVLLSAEEKKEQTIEIKEEVVGLTETSSQPKNEEDIEIIPIQEEEEEETETNFPEPPQDQESSPIENDSSP
For B1, in the data set “cryo-EM structure”, the “stoichiometry N” value was determined as 2.

The record behind these values is publication PMC12484979 (Nature Communications, 2025).
